From IntAct's records for PubMed 22699936

B1: Centrosomal P4.1-associated protein (Homo sapiens), Q9HC77 (parent)
chain: MFLMPTSSELNSGQNFLTQWMTNPSRAGVILNRGFPILEADKEKRAAVDISTSFPIKGTHFSDSFSFINEEDSLLEEQKLESNNPYKPQSDKSETHTAFPCIKKGPQVAACHSAPGHQEENKNDFIPDLASEFKEGAYKDPLFKKLEQLKEVQQKKQEQLKRQQLEQLQRLMEEQEKLLTMVSGQCTLPGLSLLPDDQSQKHRSPGNTTTGERATCCFPSYVYPDPTQEETYPSNILSHEQSNFCRTAHGDFVLTSKRASPNLFSEAQYQEAPVEKNNLKEENRNHPTGESILCWEKVTEQIQEANDKNLQKHDDSSEVANIEERPIKAAIGERKQTFEDYLEEQIQLEEQELKQKQLKEAEGPLPIKAKPKQPFLKRGEGLARFTNAKSKFQKGKESKLVTNQSTSEDQPLFKMDRQQLQRKTALKNKELCADNPILKKDSKARTKSGSVTLSQKPKMLKCSNRKSLSPSGLKIQTGKKCDGQFRDQIKFENKVTSNNKENVTECPKPCDTGCTGWNKTQGKDRLPLSTGPASRLAAKSPIRETMKESESSLDVSLQKKLETWEREKEKENLELDEFLFLEQAADEISFSSNSSFVLKILERDQQICKGHRMSSTPVKAVPQKTNPADPISHCNRSEDLDHTAREKESECEVAPKQLHSLSSADELREQPCKIRKAVQKSTSENQTEWNARDDEGVPNSDSSTDSEEQLDVTIKPSTEDRERGISSREDSPQVCDDKGPFKDTRTQEDKRRDVDLDLSDKDYSSDESIMESIKHKVSEPSRSSSLSLSKMDFDDERTWTDLEENLCNHDVVLGNESTYGTPQTCYPNNEIGILDKTIKRKIAPVKRGEDLSKSRRSRSPPTSELMMKFFPSLKPKPKSDSHLGNELKLNISQDQPPGDNARSQVLREKIIELETEIEKFKAENASLAKLRIERESALEKLRKEIADFEQQKAKELARIEEFKKEEMRKLQKERKVFEKYTTAARTFPDKKEREEIQTLKQQIADLREDLKRKETKWSSTHSRLRSQIQMLVRENTDLREEIKVMERFRLDAWKRAEAIESSLEVEKKDKLANTSVRFQNSQISSGTQVEKYKKNYLPMQGNPPRRSKSAPPRDLGNLDKGQAASPREPLEPLNFPDPEYKEEEEDQDIQGEISHPDGKVEKVYKNGCRVILFPNGTRKEVSADGKTITVTFFNGDVKQVMPDQRVIYYYAAAQTTHTTYPEGLEVLHFSSGQIEKHYPDGRKEITFPDQTVKNLFPDGQEESIFPDGTIVRVQRDGNKLIEFNNGQRELHTAQFKRREYPDGTVKTVYANGHQETKYRSGRIRVKDKEGNVLMDTEL

Variants of: B1
Details: with tnks1_human TNKS

effect of a mutation on the interaction	Variant
disrupting interaction	G1303A
disrupting interaction	D1302A
